B1: AtGH3-5: indole-3-acetic acid-amido synthetase GH3.5 from Arabidopsis thaliana, His-tagged (protein, listed as Arabidopsis thaliana)
chain: MPEAPKKESLEVFDLTLDQKNKQKLQLIEELTSNADQVQRQVLEEILTRNADVEYLRRHDLNGRTDRETFKNIMPVITYEDIEPEINRIANGDKSPILSSKPISEFLTSSGTSGGERKLMPTIEEELDRRSLLYSLLMPVMSQFVPGLENGKGMYFLFIKSESKTPGGLPARPVLTSYYKSSHFKERPYDPYTNYTSPNETILCSDSYQSMYSQMLCGLCQHQEVLRVGAVFASGFIRAIKFLEKHWIELVRDIRTGTLSSLITDPSVREAVAKILKPSPKLADFVEFECKKSSWQGIITRLWPNTKYVDVIVTGTMSQYIPTLDYYSNGLPLVCTMYASSECYFGVNLRPLCKPSEVSYTLIPSMAYFEFLPVHRNNGVTNSINLPKALTEKEQQELVDLVDVKLGQEYELVVTTYAGLCRYRVGDLLRVTGFKNKAPQFSFICRKNVVLSIDSDKTDEVELQNAVKNAVTHLVPFDASLSEYTSYADTSSIPGHYVLFWELCLDGNTPIPPSVFEDCCLAVEESFNTVYRQGRVSDKSIGPLEIKIVEPGTFDKLMDYAISLGASINQYKTPRCVKFAPIIELLNSRVVDSYFSPKCPKWVPGHKQWGSN
modifications: His-tag
notes: indole-3-acetic acid-amido synthetase GH3.5 from Arabidopsis thaliana, His-tagged
B2: OsGH3-8: probable indole-3-acetic acid-amido synthetase GH3.8 from Oryza sativa, expressed in E. coli with N-terminal His-tag (protein, listed as Oryza sativa)
chain: MAVMTDVSTTGTALRTPAAGAVKEGDVEKLRFIDEMTTNVDAVQERVLGEILGRNAGTEYLTKCGLDGATDRAAFRAKVPVVSYDDLQPYIQRIANGDRSPILSTHPVSEFLTSSGTSAGERKLMPTIMDELDRRQLLYSLLMPVMNLYVPGLDKGKGLYFLFVKSETKTPGGLTARPVLTSYYKSDHFKNRPYDPYHNYTSPTAAILCADAFQSMYAQMVCGLCQRNDVLRLGAVFASGLLRAIRFLQLNWEQLADDIESGELTPRVTDPSVREAVAAILLPDPELAKLIRAECSKGDWAGIITRVWPNTKYLDVIVTGAMAQYIPTLEFYSGGLPMACTMYASSECYFGLNLRPMCDPSEVSYTIMPNMGYFEFLPVDETGAASGDATQLVDLARVEVGREYELVITTYAGLNRYRVGDVLRVTGFHNAAPQFRFVRRKNVLLSIESDKTDEAELQRAVERASALLRPHGASVVEYTSQACTKRIPGHYVIYWELLTKGAGATVVDADTLGRCCLEMEEALNTVYRQSRVADGSIGPLEIRVVRPGTFEELMDYAISRGASINQYKVPRCVTFPPIVELLDSRVVSSHFSPALPHWTPARRSE
modifications: N-terminal His-tag
notes: probable indole-3-acetic acid-amido synthetase GH3.8 from Oryza sativa, expressed in E. coli with N-terminal His-tag

Columns and labels:
Format in all cases: biochemical
[1] = Synthesis of N-caprinoylamino acid using purified acylamino acid synthetase, UPLC-MS detection; set-up: key: +: Detected; −: Not detected; settings: +ATP
How it was run: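 Purified enzyme (50 μg) with 5 mM amino acid, 5 mM sodium caprate, 10 mM ATP, 10 mM MgCl2, 1 mM DTT in Tris-HCl pH 8.0, 24 h at 25° C; product detected by UPLC-MS (ESI-negative) as the N-caprinoyl amino acid mass signal.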

[2] = Synthesis of N-lauroylamino acid / N-lauroylamino acid derivative using purified acylamino acid synthetase, UPLC-MS detection; set-up: key: +: Detected; −: Not detected; settings: +ATP
Procedure: 0.2 mL of a reaction solution containing 50 mM Tris-HCl, 5 mM amino acid or D-amino acid derivative, 5 mM sodium laurate, 10 mM ATP, 10 mM MgCl2, 1 mM DTT, 200 μg/mL of the purified enzyme, pH 8.0 was incubated at 25° C. for 24 hours. After completion of the reaction, 0.8 mL of the reaction stop solution (1% (v/v) phosphoric acid, 75% (v/v) methanol) was added, and the mixture was filtrated through the filter followed by being subjected to the UPLC-MS analysis to detect a signal of a molecular weight corresponding to an N-lauroyl-amino acid or an N-lauroyl-amino acid derivative. The condition for the UPLC-MS analysis is as described in Example 2.
As a result of the UPLC-MS analysis, the signal of the molecular weight corresponding to the N-lauroyl-amino acid or the N-lauroyl-amino acid derivative was confirmed in the reaction solution containing the enzyme in combination with the amino acid or the amino acid derivative shown in Table 5 below.

[3] = Quantification of produced N-acylamino acid (UV 210 nm) using purified acylamino acid synthetase; settings: 5 mM L-Asp, 5 mM sodium fatty acid, 200 μg/mL enzyme, 25° C., 24 hours
Procedure: 0.1 mL of a reaction solution containing 50 mM Tris-HCl, 5 mM amino acid, 5 mM sodium fatty acid, 10 mM ATP, 10 mM MgCl2, 1 mM DTT, 200 μg/mL of the purified enzyme, pH 8.0 was incubated at 25° C. for 24 hours. As amino acids, L-Asp was used in AtGH3-6, OsGH3-8, AtGH3-5, AtGH3-12, and Gly or L-Ala was used in CfHP. After completion of the reaction, 0.4 mL of the reaction stop solution (1% (v/v) phosphoric acid, 75% (v/v) methanol) was added, and the mixture was filtrated through the filter followed by being subjected to the UPLC-MS analysis to quantify the produced N-acylamino acid by detection at UV 210 nm. The condition for the UPLC-MS analysis is as descried in Example 2. As a result of the analysis, 3.9 mM of Nα-capryloyl-L-aspartic acid, 4.5 mM of Nα-caprinoyl-L-aspartic acid and 2.2 mM of Nα-lauroyl-L-aspartic acid were detected when AtGH3-6 was used; 4.3 mM of Nα-capryloyl-L-aspartic acid, 4.6 mM of Nα-caprinoyl-L-aspartic acid and 3.5 mM of Nα-lauroyl-L-aspartic acid were detected when OsGH3-8 was used; 4.1 mM of Nα-capryloyl-L-aspartic acid, 4.6 mM of Nα-caprinoyl-L-aspartic acid and 2.5 mM of Nα-lauroyl-L-aspartic acid were detected when AtGH3-5 was used; 1.6 mM of Nα-capryloyl-L-aspartic acid, 0.6 mM of Nα-caprinoyl-L-aspartic acid and 0.2 mM of Nα-lauroyl-L-aspartic acid were detected when AtGH3-12 was used; 4.5 mM of Nα-capryloylglycine, 4.6 mM of Nα-caprinoylglycine, 0.1 mM of Nα-lauroylglycine, 3.1 mM of Nα-capryloyl-L-alanine, 3.6 mM of Nα-caprinoyl-L-alanine and 0.4 mM of Nα-lauroyl-L-alanine were detected when CfHP was used.

[4] = substrates GABA and sodium caprate
[5] = substrates Gly and sodium caprate
[6] = substrates L-Ala and sodium caprate
[7] = substrates L-Arg and sodium caprate
[8] = substrates L-Asn and sodium caprate
[9] = substrates L-Asp and sodium caprate
[10] = substrates L-Cys and sodium caprate
[11] = substrates L-Gln and sodium caprate
[12] = substrates L-Glu and sodium caprate
[13] = substrates L-His and sodium caprate
[14] = substrates L-Ile and sodium caprate
[15] = substrates L-Leu and sodium caprate
[16] = substrates L-Lys and sodium caprate
[17] = substrates L-Met and sodium caprate
[18] = substrates L-Phe and sodium caprate
[19] = substrates L-Pro and sodium caprate
[20] = substrates L-Ser and sodium caprate
[21] = substrates L-Thr and sodium caprate
[22] = substrates L-Trp and sodium caprate
[23] = substrates L-Tyr and sodium caprate
[24] = substrates L-Val and sodium caprate
[25] = substrates β-Ala and sodium caprate
[26] = substrates Gly and sodium laurate
[27] = substrates L-Ala and sodium laurate
[28] = substrates L-Arg and sodium laurate
[29] = substrates L-Asp and sodium laurate
[30] = substrates L-Glu and sodium laurate
[31] = substrates L-Lys and sodium laurate
[32] = substrates L-Thr and sodium laurate
[33] = substrates β-Ala and sodium laurate

| Molecule | signal of molecular weight corresponding to N-caprinoyl amino acid [1, 4] | signal of molecular weight corresponding to N-caprinoyl amino acid [1, 5] | signal of molecular weight corresponding to N-caprinoyl amino acid [1, 6] | signal of molecular weight corresponding to N-caprinoyl amino acid [1, 7] | signal of molecular weight corresponding to N-caprinoyl amino acid [1, 8] | signal of molecular weight corresponding to N-caprinoyl amino acid [1, 9] | signal of molecular weight corresponding to N-caprinoyl amino acid [1, 10] | signal of molecular weight corresponding to N-caprinoyl amino acid [1, 11] | signal of molecular weight corresponding to N-caprinoyl amino acid [1, 12] | signal of molecular weight corresponding to N-caprinoyl amino acid [1, 13] | signal of molecular weight corresponding to N-caprinoyl amino acid [1, 14] | signal of molecular weight corresponding to N-caprinoyl amino acid [1, 15] | signal of molecular weight corresponding to N-caprinoyl amino acid [1, 16] | signal of molecular weight corresponding to N-caprinoyl amino acid [1, 17] | signal of molecular weight corresponding to N-caprinoyl amino acid [1, 18] | signal of molecular weight corresponding to N-caprinoyl amino acid [1, 19] | signal of molecular weight corresponding to N-caprinoyl amino acid [1, 20] | signal of molecular weight corresponding to N-caprinoyl amino acid [1, 21] | signal of molecular weight corresponding to N-caprinoyl amino acid [1, 22] | signal of molecular weight corresponding to N-caprinoyl amino acid [1, 23] | other results |
| --- | --- | --- | --- | --- | --- | --- | --- | --- | --- | --- | --- | --- | --- | --- | --- | --- | --- | --- | --- | --- | --- |
| B1 | + | + | + | + | + | + | + | + | + | + | + | + | + | + | + | + | + | + | + | + | signal of molecular weight corresponding to N-caprinoyl amino acid [1, 24]: +; signal of molecular weight corresponding to N-caprinoyl amino acid [1, 25]: +; signal of molecular weight corresponding to N-lauroyl amino acid [2, 26]: +; signal of molecular weight corresponding to N-lauroyl amino acid [2, 27]: +; signal of molecular weight corresponding to N-lauroyl amino acid [2, 28]: +; signal of molecular weight corresponding to N-lauroyl amino acid [2, 29]: +; signal of molecular weight corresponding to N-lauroyl amino acid [2, 30]: +; signal of molecular weight corresponding to N-lauroyl amino acid [2, 31]: +; signal of molecular weight corresponding to N-lauroyl amino acid [2, 32]: +; signal of molecular weight corresponding to N-lauroyl amino acid [2, 33]: +; Nα-caprinoyl-L-aspartic acid detected [3]: 4.6 mM; Nα-capryloyl-L-aspartic acid detected [3]: 4.1 mM; Nα-lauroyl-L-aspartic acid detected [3]: 2.5 mM |
| B2 | + | + | + | + | + | + | + | + | + | + | + | + | + | + | + | + | + | + | + | + | signal of molecular weight corresponding to N-caprinoyl amino acid [1, 24]: +; signal of molecular weight corresponding to N-caprinoyl amino acid [1, 25]: +; signal of molecular weight corresponding to N-lauroyl amino acid [2, 26]: +; signal of molecular weight corresponding to N-lauroyl amino acid [2, 27]: +; signal of molecular weight corresponding to N-lauroyl amino acid [2, 28]: +; signal of molecular weight corresponding to N-lauroyl amino acid [2, 29]: +; signal of molecular weight corresponding to N-lauroyl amino acid [2, 30]: +; signal of molecular weight corresponding to N-lauroyl amino acid [2, 31]: +; signal of molecular weight corresponding to N-lauroyl amino acid [2, 32]: +; signal of molecular weight corresponding to N-lauroyl amino acid [2, 33]: +; Nα-caprinoyl-L-aspartic acid detected [3]: 4.6 mM; Nα-capryloyl-L-aspartic acid detected [3]: 4.3 mM; Nα-lauroyl-L-aspartic acid detected [3]: 3.5 mM |
